Consider ten molecules from patent US20070180544A1.

In assay [1] the target is extracellular domain of rat neurexin-1-β (rat-NX1β-1), residues 48-300 (rat) (UniProt Q63373). In words: SPR (BIAcore), NX1β immobilised.
Assay [2] has the same target. Description: SPR (BIAcore), NX1β immobilised; from ka and kd.
For assay [3] the target is unchanged. Description: SPR, NX1β immobilised; one value told for the four proteins.
The target is the same in assay [4]. In words: SPR, NX1β immobilised. In general terms: SPR reads the build-up and loss of mass on a sensor chip optically.
For assay [5] the target is unchanged. In words: SPR, β-neurexin immobilised; 3 µM.
Assay [6] has the same target. Description: SPR, β-neurexin immobilised; 111 nM.
For assay [7] the target is unchanged. In words: SPR (BIAcore), NX1β immobilised, NL1 62.5-2000 nM.
For assay [8] the target is unchanged. Description: SPR, NX1β immobilised; treated against native protein.
Assay [9] shares this target. In words: SPR, NX1β immobilised; deglycosylated against native protein.
For assay [10] the target is unchanged. In words: SPR, NX1β immobilised; sialidase II treated against native protein.
For assay [11] the target is unchanged. Description: SPR, NX1β immobilised; treated against native protein, 500 nM.

Turning to “soluble truncated NL1 (recombinant, soluble entity; truncation not specified) (from UniProt Q62765 46-691) (receptor)”, in assay [1], the koff (commonly the rate constant with which the complex falls apart) was 0.015 s⁻¹ and the kon (in general, the rate constant with which the complex forms) was determined as 50000 M⁻¹ s⁻¹. Moreover, in [2], the equilibrium dissociation constant (Kd) (commonly the constant that tells how readily two partners part at equilibrium) was found to be 300 nM.

For “N343A-NL1-638 (from UniProt Q62765 46-638) (receptor)”, the increase of NX1β binding activity after PNGase F digestion in [3] was 229%.

Take “T111A-NL1-638 (from UniProt Q62765 46-638) (receptor)”: the increase of NX1β binding activity after PNGase F digestion in assay [3] amounted to 229%.

For the molecule “N303A-NL1-638 (from UniProt Q62765 46-638) (receptor)”, in assay [4], the increase of NX1β binding activity after PNGase F digestion was found to be 17%.

In turn, “R471C-NL3-639 (from UniProt Q62889 35-639) (receptor)” yielded a fold less β-neurexin binding than wild type in [5] of 50 fold.

As for “S549A-NL1-638 (from UniProt Q62765 46-638) (receptor)”, the increase of NX1β binding activity after PNGase F digestion in assay [3] is 229%.

As to “R473T-NL1-691 (from UniProt Q62765 46-691) (receptor)”, the fold less total binding than wild type in assay [6] was 3 fold.

B1: NL1-651 (soluble rat neuroligin-1 truncated by a stop codon at Thr-652, N-terminal FLAG) (receptor)
chain: DYKDDDDKLAAANSSIDLQKLDDVDPLVTTNFGKIRGIKKELNNEILGPVIQFLGVPYAAPPTGEHRFQPPEPPSPWSDIRNATQFAPVCPQNIIDGRLPEVMLPVWFTNNLDVVSSYVQDQSEDCLYLNIYVPTEDVKRISKECARKPGKKICRKGDIRDSGGPKPVMVYIHGGSYMEGTGNLYDGSVLASYGNVIVITVNYRLGVLGFLSTGDQAAKGNYGLLDLIQALRWTSENIGFFGGDPLRITVFGSGAGGSCVNLLTLSHYSEGNRWSNSTKGLFQRAIAQSGTALSSWAVSFQPAKYARILATKVGCNVSDTVELVECLQKKPYKELVDQDVQPARYHIAFGPVIDGDVIPDDPQILMEQGEFLNYDIMLGVNQGEGLKFVENIVDSDDGVSASDFDFAVSNFVDNLYGYPEGKDVLRETIKFMYTDWADRHNPETRRKTLLALFTDHQWVAPAVATADLHSNFGSPTYFYAFYHHCQTDQVPAWADAAHGDEVPYVLGIPMIGPTELFPCNFSKNDVMLSAVVMTYWTNFAKTGDPNQPVPQDTKFIHTKPNRFEEVAWTRYSQKDQLYLHIGLKPRVKEHYRANKVNLWLELVPHLHNLNDISQYTSTTTKVPS
On to B1, for which the fold binding over NL1-691 in assay [7] worked out at 2.5 fold.

B2: NL1-691 (soluble rat neuroligin-1 truncated by a stop codon at Tyr-692, N-terminal FLAG) (receptor)
chain: DYKDDDDKLAAANSSIDLQKLDDVDPLVTTNFGKIRGIKKELNNEILGPVIQFLGVPYAAPPTGEHRFQPPEPPSPWSDIRNATQFAPVCPQNIIDGRLPEVMLPVWFTNNLDVVSSYVQDQSEDCLYLNIYVPTEDVKRISKECARKPGKKICRKGDIRDSGGPKPVMVYIHGGSYMEGTGNLYDGSVLASYGNVIVITVNYRLGVLGFLSTGDQAAKGNYGLLDLIQALRWTSENIGFFGGDPLRITVFGSGAGGSCVNLLTLSHYSEGNRWSNSTKGLFQRAIAQSGTALSSWAVSFQPAKYARILATKVGCNVSDTVELVECLQKKPYKELVDQDVQPARYHIAFGPVIDGDVIPDDPQILMEQGEFLNYDIMLGVNQGEGLKFVENIVDSDDGVSASDFDFAVSNFVDNLYGYPEGKDVLRETIKFMYTDWADRHNPETRRKTLLALFTDHQWVAPAVATADLHSNFGSPTYFYAFYHHCQTDQVPAWADAAHGDEVPYVLGIPMIGPTELFPCNFSKNDVMLSAVVMTYWTNFAKTGDPNQPVPQDTKFIHTKPNRFEEVAWTRYSQKDQLYLHIGLKPRVKEHYRANKVNLWLELVPHLHNLNDISQYTSTTTKVPSTDITLRPTRKNSTPVTSAFPTAKQDDPKQQPSPFSVDQRD
On to B2, for which, in [8], the fold increase in binding after combined sialidase II and PNGase F treatment came out at 5 fold. The molecule also gave a fold increase in binding after PNGase F treatment in [9] of 3 fold. The molecule also returned a fold increase in binding after sialidase-II treatment in [10] of 2 to 2.5 fold.

B3: NL1-638 (soluble rat neuroligin-1 truncated by a stop codon at Ile-639, N-terminal FLAG) (receptor)
chain: DYKDDDDKLAAANSSIDLQKLDDVDPLVTTNFGKIRGIKKELNNEILGPVIQFLGVPYAAPPTGEHRFQPPEPPSPWSDIRNATQFAPVCPQNIIDGRLPEVMLPVWFTNNLDVVSSYVQDQSEDCLYLNIYVPTEDVKRISKECARKPGKKICRKGDIRDSGGPKPVMVYIHGGSYMEGTGNLYDGSVLASYGNVIVITVNYRLGVLGFLSTGDQAAKGNYGLLDLIQALRWTSENIGFFGGDPLRITVFGSGAGGSCVNLLTLSHYSEGNRWSNSTKGLFQRAIAQSGTALSSWAVSFQPAKYARILATKVGCNVSDTVELVECLQKKPYKELVDQDVQPARYHIAFGPVIDGDVIPDDPQILMEQGEFLNYDIMLGVNQGEGLKFVENIVDSDDGVSASDFDFAVSNFVDNLYGYPEGKDVLRETIKFMYTDWADRHNPETRRKTLLALFTDHQWVAPAVATADLHSNFGSPTYFYAFYHHCQTDQVPAWADAAHGDEVPYVLGIPMIGPTELFPCNFSKNDVMLSAVVMTYWTNFAKTGDPNQPVPQDTKFIHTKPNRFEEVAWTRYSQKDQLYLHIGLKPRVKEHYRANKVNLWLELVPHLHNLND
Regarding B3, the fold binding over NL1-691 in assay [7] turned out to be 2.5 fold. Moreover, in assay [3], the increase of NX1β binding activity after PNGase F digestion was 229%. The molecule also displayed a fold increase in binding after PNGase F treatment in assay [9] of 3 fold. For the same molecule, in [11], the fold increase in binding after combined sialidase II and PNGase F treatment is 5 fold. The fold increase in binding after sialidase-II treatment in assay [10] was in the range of 2 to 2.5 fold.
